Target: Raytide (synthetic peptide substrate)

B1: T7 tagged Lyp1 (protein)
chain: MDQREILQKFLDEAQSKKITKEEFANEFLKLKRQSTKYKADKTYPTTVAENAKNIKKNRYKDILPYDYSRVELSLITSDEDSSYINANFIKGVYGPKAYIATQGPLSTTLLDFWRMIWEYSVLIIVMACMEYEMGKKKCERYWAEPGEMQLEFGPFSVSCEAEKRKSDYIIRTLKVKFNSETRTIYQFHYKNWPDHDVPSSIDPILELIWDVRCYQEDDSVPICIHCSAGCGRTGVICAIVDYTWMLLKDGIIPENFSVFSLIREMRTQRPSLVQTQEQYELVYNAVLELFKRQMDVIRDKHSGTESQAKHCIPEKNHTLQADSYSPNLPKSTTKAAKMMNQQRTKMEIKESSSFDFRTSEISAKEELVLHPAKSSTSFDFLELNYSFDKNADTTMKWQTKAFPIVGEPLQKHQSLDLGSLLFEGCSNSKPVNAAGRYFNSKVPITRTKSTPFELIQQRETKEVDSKENFSYLESQPHDSCFVEMQAQKVMHVSSAELNYSLPYDSKHQIRNASNVKHHDSSALGVYSYIPLVENPYFSSWPPSGTSSKMSLDLPEKQDGTVFPSSLLPTSSTSLFSYYNSHSSLSLNSPTNISSLLNQESAVLATAPRIDDEIPPPLPVRTPESFIVVEEAGEFSPNVPKSLSSAVKVKIGTSLEWGGTSEPKKFDDSVILRPSKSVKLRSPKSELHQDRSSPPPPLPERTLESFFLADEDCMQAQSIETYSTSYPDTMENSTSSKQTLKTPGKSFTRSKSLKILRNMKKSICNSCPPNKPAESVQSNNSSSFLNFGFANRFSKPKGPRNPPPTWNI
**Q.** B1 was tested. Which “33P release from labelled Raytide, in vitro phosphatase assay with immunoprecipitates” value did it give?
**A.** The value was “a seven fold increase in ^33P release from the substrate incubated with Lyp immunoprecipitates compared to control immunoprecipitates”.

From patent US20040006777
